To fix the notation:
B1: TPR 5TU (parent)
chain: GGAUCUUCUCGAUCUAACAAAAAAGACAAAUCUGCCACAAAGCUUGAGAGCAUCUUCGGAUGCAGAGGCGGCAGCCUUCGGUGGCGCGAUAGCGCCAACGUUCUCAACUAUGACACGCAAAACGCGUGCUCCGUUGAAUGGAGUUUAUCAUG

Variants at the floor of the assay were thinned out.

In the series the parent is B1. As to the kind of experiment: polymerase ribozyme fitness, log enrichment relative to wild type (log ratio); higher = more active; in vitro selection for triplet polymerase activity. The method, boiled down:
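Each subunit of a heterodimeric triplet polymerase ribozyme was mutagenized into a library by PCR, transcribed, and subjected to one round of in vitro selection, run in triplicate. Libraries were annealed with a biotinylated primer, the partner subunit and triplets, incubated frozen at −7 °C, and extended constructs were gel-excised, captured on streptavidin beads and recovered by RT-PCR. Input and output libraries were sequenced on Illumina, keeping genotypes with ≥10 input reads and ≥1 read per output. Fitness is log base 2 of genotype enrichment divided by wild-type enrichment, from inverse-variance-weighted replicate averages.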
Regarding GGAUCUUCUCGAUCUAACAAUAAAGACAAAUCUGCCACAAAGCUUGAGAGCAUCUUCGGAUGCAGAGGCGGCAGACUUCGGUGGCGCGAUAGCGCCAACGUUCUCAACUAUGACACGCAAAUCGCGUGCUCCGUUGAAUGGAGUUUAUCAUG [A21U C75A A122U], the “polymerase ribozyme fitness (log ratio)” value was -3.97.
On to GGAUCGUCUCGAUCUAACAAAAAAGUCAAAUCUGCCACAAAGCUUGAGAGCAUCUUCGGAUGCAGAGGCGGCAGCCUUCGGUGGCGCGAUAGUGCCAACGUUCUCAACUAUGACACGCAAAACGCGUGCUCCGUUGAAUGGAGUUUAUCAUG [U6G A26U C93U], for which the “polymerase ribozyme fitness (log ratio)” value was -2.39.
For GGAUCAUCUCGAUCUAACAAAAAAGACAAAUCUGCCACUAAGCUUGAGAGCAUCUUCGGAUGCAGAGGCGGCAGCCUUCGGUGGCGCGAUAGCGCCAACGGUCUCAACUAUGACACGGAAAACGCGUGCUCCGUUGAAUGGAGUUUAUCAUG [U6A A39U U101G C118G] the value was at most -4.2; for GGAUCUUCUCGAUCUAAUUAAAAGGACAAAUCUGCCACAAAGCUUGAGAGCAUCUUCGGAUGCAGAGGCGGCAUCCUUUGGUGGCGCGAUAGCGCCAACGUUCUCAACUAUGACACGCAAAACGCGUGCUCCGUUGAAUGGAGUUUAUCAUG [C18U A19U A24G G74U C79U], at most -4.2; for GGAUCUUCUCGAUCUAACAAAAAAGACAAAUCUGCCACAAGGCUUGCGAGCAUCUUCGGAUGCAGAGGCGGCAGCCUUCGCUGGCGCGAUAGCGCCAACGUUCUCAACUAUGACACGCAAAACGCGUGCUCCGUUGAAUGGAGUUUAUCAUG [A41G A47C G81C], -0.0928.
Turning to GGAUCUUCUCGAGCUAACAAAAAAGACAAAUCUGCCACAAAGCUUGAGAGCAUCUAUGGAUGCAGAGGCGGCAGCCUUCGGUGGCGACUUAGCGCCAACGUUCUCAACUAUGACACGCAAUACGAGUGCUCCGUUGAAUGGAGUUUAACAUG [U13G U56A C57U C87A G88C A89U A121U C125A U148A], the “polymerase ribozyme fitness (log ratio)” value is at most -4.2.
With GGAUCUUCUCGAUCUAACAAAAAAGACAAAUCUGCCACAAAGCUUGAGAGCAUCUUCGGAUGCAGAGGCGGCAGCCUUCGGUGGCGCGAUAGCGCCAACGUUCUCAACUAUGACACGCUAAACGCAUGCUCCGUCGAAUGCAGUUUAUCAUG [A119U G126A U135C G141C], the “polymerase ribozyme fitness (log ratio)” value is -3.75.
For GGAUCUUCUCGAUCUAGCAAAAAAGACAAAUCUGCCACAAAGCUUGAGAGUAUCUUCGGAUGCAGAGGCGGCAGCCUUCGGUGGCGCGAUAGCGCCAACGUUCUCGACUAUGACACGCACAUCGCGUGCUCCGUUGAAUGGAGUUUAUCAUG [A17G C51U A106G A120C A122U], the “polymerase ribozyme fitness (log ratio)” value was -1.36.
With GGAUCUUCUCGAUCUAACAAAAAAGACAAAUCUGCCACAAAGCUUGAGAGCAUCUUCGGAUGCAGAGGCGGCAGCCUUCGGUAGCGCGAUAUCGCCAACGUUCUCAACUAUGACACGGAAAACGCGUGCUCCGUUGAAUGGAGUUUAUCAUG [G83A G92U C118G], the “polymerase ribozyme fitness (log ratio)” value was -1.41.
Turning to GGAUCUUAUCGAUCUAACAAAAAAGACAAAUCUGGCACAAAGCUUGAGAGUAUCUUCGAAUGCAGAGGCGGCGGCAUUCGGUGGGGCGAUAGCGCCAACGUUCUCAACUAUGACACGCAAAACGCGUGCUCCGUUGAUUGGAGUUUAUCACG [C8A C35G C51U G59A A73G C76A C85G A138U U151C], the “polymerase ribozyme fitness (log ratio)” value is at most -4.2.
On to GGAUCUUCUCGAUCUAACAAAAAAGACAAAUCUGCCACAAAGCUUGAGAGCAUCUUCGGAUGCAGAGGCGGCGGCCUUCGGUGGCGCGAUAGUGCCAACGUUCUCAACUAUGACACGCAAAACGCGUGCUCCGUUGAAUGGAGUUUAUCAUA [A73G C93U G152A], for which the “polymerase ribozyme fitness (log ratio)” value was -2.84.
As to GGAUCUUCUCGAUCUAACAAAAAAGACAAAUCUGCCACAAAGCUUGAGAGCAUCUUCGGAUCCAGAGGCGGCAGCCUUCGGUGACGCGAUAGCGCCAACGUUCUCAACUAUGACACGCAAAACGGGUACUCCGUUGAAUGGAGUUUAUCAUG [G62C G84A C125G G128A], the “polymerase ribozyme fitness (log ratio)” value is at most -4.2.
On to GGAUCUUCUCGAUCUAACAAAAAAGACAAAUCUGCCACAAAGCUUGAGAGCUUCUACGGAUGCAGAGGCGGCAGCCUUCGGUCACGCGAUAGCGCCAAGGUUCUCUACUAUGACACGCAAAACGCGUGCUCCGUUGAAUGGAGAUUAUCAUG [A52U U56A G83C G84A C99G A106U U144A], for which the “polymerase ribozyme fitness (log ratio)” value was at most -4.2.
Regarding GGAUCUUCUCGAUCUAACAAAAAAGACAAAUCUGCCACAAGGCUUGAGAGCAUCUUCGGAUGCAGAGGCGGCAGCUUUCGGUGGCGCGAUAGGGCCAACGUUCUCGACUAUGACACGCAAAGCGCGUGAUCCGUUGAAUGUAGUUUAUCAUG [A41G C76U C93G A106G A122G C129A G141U], the “polymerase ribozyme fitness (log ratio)” value is at most -4.2.
In the case of GGAUCUUCUCGAUCUAACAAAAAAGACAAAUCUGCCACAAAGCUUGAGAGCAUCUUCGGAUGCAGAGCCGGCAGCCUUCGUUGGCGCGAUAGCGCUAACGUUCUCAACCAUGACACGCAAAACGCGUGCUCCGUUGAAUGGAGUUUAUCAUG [G68C G81U C96U U109C], the “polymerase ribozyme fitness (log ratio)” value is at most -4.2.
As for GGAUCUUCUCGAUCUAACAAAAAAGACAAAUCUGCCACAAAGCUUGAGAGCAUCUUCGCAUGCAGAGGCGGCAGCCUUCGGUGGGGCGUUAACGCCAACGUUCUCAACUAUGACACGCAAAACGCGUGCUCCGUUGAAUGGAGUUUAUCAUG [G59C C85G A89U G92A], the “polymerase ribozyme fitness (log ratio)” value was at most -4.2.
With GGAUCUUCUCGAUCUAACAAAAAAGACAAAUCUGCCACAAAGCUUGAGAGCAUCUUCGGAUGCAGAGGCGGCAGCCUUCGGUGGCGCGAUAGUGCCAGCGUUCUCAACUAUGACACGCAAAACCCGUGCUCCGUUGAAUGGAGUUUAUCAUG [C93U A98G G124C] the figure was -1.76.
On to GGAUCUUCUCGAUCUAACAAAAAAGACAAAUCUGCCUCAAAGCUUGAGAGCAUCUUCGGAUGCAGAGGCCGCAGCCUUCGGUGGUGCGAUAACGCCAACGUUCUCAACUAUGACACGCAAAACGCGUGCUCCGUUGAAUGGAGUUUAUCAUG [A37U G70C C85U G92A], for which the “polymerase ribozyme fitness (log ratio)” value is at most -4.2.
GGAUCUUCUCGUUCUAACAAAAAAGACAAAUCUGCCACAAAGCUUGAGAGCAUCUUCGGAUGCAGAGGCGGCAGCCUUCGGUGGCGCGAUAGCGCCAACGUUCUCAACUACGACACGCAAAACGCGUGCUCCGUUGAAUGGAGUUUAUCAUG [A12U U111C]: the “polymerase ribozyme fitness (log ratio)” value was -4.

Values taken from the RNAGym collection of RNA variant scans (doi:10.1073/pnas.2313332121).
